T1: IL-23 (HEK293E-derived) (human, UniProt P29460 23-328; Q9NPF7 20-189)
T1 sequence 1: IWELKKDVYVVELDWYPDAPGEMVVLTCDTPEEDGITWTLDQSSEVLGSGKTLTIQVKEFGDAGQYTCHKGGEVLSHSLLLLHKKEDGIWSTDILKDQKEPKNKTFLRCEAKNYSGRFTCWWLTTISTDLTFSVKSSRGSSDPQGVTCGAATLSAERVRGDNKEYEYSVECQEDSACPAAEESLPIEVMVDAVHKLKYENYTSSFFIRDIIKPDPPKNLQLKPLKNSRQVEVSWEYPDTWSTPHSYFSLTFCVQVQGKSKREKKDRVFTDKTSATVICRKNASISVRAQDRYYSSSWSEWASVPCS
T1 sequence 2: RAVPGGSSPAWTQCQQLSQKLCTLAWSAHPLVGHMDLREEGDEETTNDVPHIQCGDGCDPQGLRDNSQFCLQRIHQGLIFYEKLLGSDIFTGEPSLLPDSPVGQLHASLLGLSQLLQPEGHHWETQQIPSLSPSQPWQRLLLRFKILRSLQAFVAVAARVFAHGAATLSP

B1: 11-23 (antibody, human IgG1, kappa, V domains shown)
VH: QVQLQESGPGLVKPSETLSLTCTVSGGSISSYNVHWIRQPPGKGLEWIGVIWTGGSTDYNPSLKSRVTISRDTSKNQFSLKLSSVTAADTAVYYCARDKYGLFPGYFDYWGQGTLVTVSS
VL: DIVMTQTPLSLPVTPGEPASISCKPSQSLLSSGNRKNYLAWYLQKPGQSPQLLIYYASTRQSGVPDRFSGSGSGTDFTLKISRVEAEDVGVYYCLQHFNYPWTFGQGTKLEIKR
notes: Humanized form of E11E7; also called humanized antibody 11-23
B2: 11-22 (antibody, human IgG1, kappa, V domains shown)
VH: QVQLQESGPGLVKPSETLSLTCTVSGGSISSYNVHWIRQPPGKGLEWIGVIWTGGSTDYNPSLKSRVTISRDTSKNQFSLKLSSVTAADTAVYYCARDKYGLFPGYFDYWGQGTLVTVSS
VL: DIVMTQSPDSLAVSLGERATINCKPSQSLLSSGNRKNYLAWYQQKPGQPPKLLIYYASTRQSGVPDRFSGSGSGTDFTLTISSLQAEDVAVYYCLQHFNYPWTFGQGTKLEIKR
notes: Humanized form of E11E7; also called humanized antibody 11-22
B3: 9-22 (antibody, human IgG1, kappa, V domains shown)
VH: QVQLQESGPGLVKPSETLSLTCTVSGFSLISYNVHWIRQPPGKGLEWIGVIWTGGSTDYNPSLKSRVTISVDTSKNQFSLKLSSVTAADTAVYYCARDKYGLFPGYFDYWGQGTLVTVSS
VL: DIVMTQSPDSLAVSLGERATINCKPSQSLLSSGNRKNYLAWYQQKPGQPPKLLIYYASTRQSGVPDRFSGSGSGTDFTLTISSLQAEDVAVYYCLQHFNYPWTFGQGTKLEIKR
notes: Humanized form of E11E7; also called humanized antibody 9-22
B4: 6-23 (antibody, human IgG1, kappa, V domains shown)
VH: QVQLQESGPGLVKPSETLSLTCTVSGFSISSYNVHWIRQPPGKGLEWIGVIWTGGSTDYNPSLKSRVTISRDTSKNQFSLKLSSVTAADTAVYYCARDKYGLFPGYFDYWGQGTLVTVSS
VL: DIVMTQTPLSLPVTPGEPASISCKPSQSLLSSGNRKNYLAWYLQKPGQSPQLLIYYASTRQSGVPDRFSGSGSGTDFTLKISRVEAEDVGVYYCLQHFNYPWTFGQGTKLEIKR
notes: Humanized form of E11E7; also called humanized antibody 6-23
B5: 5-23 (antibody, human IgG1, kappa, V domains shown)
VH: QVQLQESGPGLVKPSETLSLTCTVSGGSIISYNVHWIRQPPGKGLEWIGVIWTGGSTDYNPSLKSRVTISRDTSKNQFSLKLSSVTAADTAVYYCARDKYGLFPGYFDYWGQGTLVTVSS
VL: DIVMTQTPLSLPVTPGEPASISCKPSQSLLSSGNRKNYLAWYLQKPGQSPQLLIYYASTRQSGVPDRFSGSGSGTDFTLKISRVEAEDVGVYYCLQHFNYPWTFGQGTKLEIKR
notes: Humanized form of E11E7; also called humanized antibody 5-23
B6: 8-23 (antibody, human IgG1, kappa, V domains shown)
VH: QVQLQESGPGLVKPSETLSLTCTVSGFSLISYNVHWIRQPPGKGLEWIGVIWTGGSTDYNPSLKSRVTISRDTSKNQFSLKLSSVTAADTAVYYCARDKYGLFPGYFDYWGQGTLVTVSS
VL: DIVMTQTPLSLPVTPGEPASISCKPSQSLLSSGNRKNYLAWYLQKPGQSPQLLIYYASTRQSGVPDRFSGSGSGTDFTLKISRVEAEDVGVYYCLQHFNYPWTFGQGTKLEIKR
notes: Humanized form of E11E7; also called humanized antibody 8-23
B7: 10-22 (antibody, human IgG1, kappa, V domains shown)
VH: QVQLQESGPGLVKPSETLSLTCTVSGGSISSYNVHWIRQPPGKGLEWIGVIWTGGSTDYNPSLKSRVTISVDTSKNQFSLKLSSVTAADTAVYYCARDKYGLFPGYFDYWGQGTLVTVSS
VL: DIVMTQSPDSLAVSLGERATINCKPSQSLLSSGNRKNYLAWYQQKPGQPPKLLIYYASTRQSGVPDRFSGSGSGTDFTLTISSLQAEDVAVYYCLQHFNYPWTFGQGTKLEIKR
notes: Humanized form of E11E7; also called humanized antibody 10-22
B8: 10-23 (antibody, human IgG1, kappa, V domains shown)
VH: QVQLQESGPGLVKPSETLSLTCTVSGGSISSYNVHWIRQPPGKGLEWIGVIWTGGSTDYNPSLKSRVTISVDTSKNQFSLKLSSVTAADTAVYYCARDKYGLFPGYFDYWGQGTLVTVSS
VL: DIVMTQTPLSLPVTPGEPASISCKPSQSLLSSGNRKNYLAWYLQKPGQSPQLLIYYASTRQSGVPDRFSGSGSGTDFTLKISRVEAEDVGVYYCLQHFNYPWTFGQGTKLEIKR
notes: Humanized form of E11E7; also called humanized antibody 10-23
B9: 7-22 (antibody, human IgG1, kappa, V domains shown)
VH: QVQLQESGPGLVKPSETLSLTCTVSGGSLSSYNVHWIRQPPGKGLEWIGVIWTGGSTDYNPSLKSRVTISRDTSKNQFSLKLSSVTAADTAVYYCARDKYGLFPGYFDYWGQGTLVTVSS
VL: DIVMTQSPDSLAVSLGERATINCKPSQSLLSSGNRKNYLAWYQQKPGQPPKLLIYYASTRQSGVPDRFSGSGSGTDFTLTISSLQAEDVAVYYCLQHFNYPWTFGQGTKLEIKR
notes: Humanized form of E11E7; also called humanized antibody 7-22
B10: 7-23 (antibody, human IgG1, kappa, V domains shown)
VH: QVQLQESGPGLVKPSETLSLTCTVSGGSLSSYNVHWIRQPPGKGLEWIGVIWTGGSTDYNPSLKSRVTISRDTSKNQFSLKLSSVTAADTAVYYCARDKYGLFPGYFDYWGQGTLVTVSS
VL: DIVMTQTPLSLPVTPGEPASISCKPSQSLLSSGNRKNYLAWYLQKPGQSPQLLIYYASTRQSGVPDRFSGSGSGTDFTLKISRVEAEDVGVYYCLQHFNYPWTFGQGTKLEIKR
notes: Humanized form of E11E7; also called humanized antibody 7-23
B11: 9-23 (antibody, human IgG1, kappa, V domains shown)
VH: QVQLQESGPGLVKPSETLSLTCTVSGFSLISYNVHWIRQPPGKGLEWIGVIWTGGSTDYNPSLKSRVTISVDTSKNQFSLKLSSVTAADTAVYYCARDKYGLFPGYFDYWGQGTLVTVSS
VL: DIVMTQTPLSLPVTPGEPASISCKPSQSLLSSGNRKNYLAWYLQKPGQSPQLLIYYASTRQSGVPDRFSGSGSGTDFTLKISRVEAEDVGVYYCLQHFNYPWTFGQGTKLEIKR
notes: Humanized form of E11E7; also called humanized antibody 9-23
B12: 5-22 (antibody, human IgG1, kappa, V domains shown)
VH: QVQLQESGPGLVKPSETLSLTCTVSGGSIISYNVHWIRQPPGKGLEWIGVIWTGGSTDYNPSLKSRVTISRDTSKNQFSLKLSSVTAADTAVYYCARDKYGLFPGYFDYWGQGTLVTVSS
VL: DIVMTQSPDSLAVSLGERATINCKPSQSLLSSGNRKNYLAWYQQKPGQPPKLLIYYASTRQSGVPDRFSGSGSGTDFTLTISSLQAEDVAVYYCLQHFNYPWTFGQGTKLEIKR
notes: Humanized form of E11E7; also called humanized antibody 5-22
B13: 18-4 (antibody, human IgG1, kappa, V domains shown)
VH: EVQLQQWGAGLLKPSETLSLTCAVYGGSFSSYNVHWIRQPPGKGLEWIGVIWTGGSTDYNSVLKSRVTISVDTSKNQFSLKLSSVTAADTAVYYCARDKYGLFPGYFDYWGQGTLVTVSS
VL: EIVLTQSPATLSLSPGERATLSCKPSQSLLSSGNRKNYLAWYQQKPGQAPRLLIYYASTRQSGIPDRFSGSGSGTDFTLTISRLEPEDFAVYYCLQHFNYPWTFGGGTKVEIKR
notes: Humanized form of E11E7; also called humanized antibody 18-4
B14: 16-12 (antibody, human IgG1, kappa, V domains shown)
VH: QVQLQESGPGLVKPSQTLSLTCTVSGFSLISYNVHWIRQPPGKGLEWIGVIWTGGSTDYNSVLKSRVTMSRDTSKNQFSLKVNSVTAADTAVYYCARDKYGLFPGYFDYWGQGTLVTVSS
VL: EIVMTQSPATLSLSPGERATLSCKPSQSLLSSGNRKNYLAWYQQKPGQAPRLLIYYASTRQSGIPARFSGSGSGTDFTLTISSLEPEDFAVYYCLQHFNYPWTFGGGTKAEIKR
notes: Humanized form of E11E7; also called humanized antibody 16-12
B15: 14-12 (antibody, human IgG1, kappa, V domains shown)
VH: QVQLQESGPGLVKPSQTLSLTCTVSGGSISSYNVHWIRQPPGKGLEWIGVIWTGGSTDYNSVLKSRVTMSRDTSKNQFSLKVNSVTAADTAVYYCARDKYGLFPGYFDYWGQGTLVTVSS
VL: EIVMTQSPATLSLSPGERATLSCKPSQSLLSSGNRKNYLAWYQQKPGQAPRLLIYYASTRQSGIPARFSGSGSGTDFTLTISSLEPEDFAVYYCLQHFNYPWTFGGGTKAEIKR
notes: Humanized form of E11E7; also called humanized antibody 14-12
B16: 15-12 (antibody, human IgG1, kappa, V domains shown)
VH: QVQLQESGPGLVKPSQTLSLTCTVSGGSISSYNVHWIRQPPGKGLEWIGVIWTGGSTDYNSVLKSRVTMSVDTSKNQFSLKVNSVTAADTAVYYCARDKYGLFPGYFDYWGQGTLVTVSS
VL: EIVMTQSPATLSLSPGERATLSCKPSQSLLSSGNRKNYLAWYQQKPGQAPRLLIYYASTRQSGIPARFSGSGSGTDFTLTISSLEPEDFAVYYCLQHFNYPWTFGGGTKAEIKR
notes: Humanized form of E11E7; also called humanized antibody 15-12
B17: 13-12 (antibody, human IgG1, kappa, V domains shown)
VH: QVQLQESGPGLVKPSQTLSLTCTVSGFSLISYNVHWIRQPPGKGLEWIGVIWTGGSTDYNSVLKSRVTMSVDTSKNQFSLKVNSVTAADTAVYYCARDKYGLFPGYFDYWGQGTLVTVSS
VL: EIVMTQSPATLSLSPGERATLSCKPSQSLLSSGNRKNYLAWYQQKPGQAPRLLIYYASTRQSGIPARFSGSGSGTDFTLTISSLEPEDFAVYYCLQHFNYPWTFGGGTKAEIKR
notes: Humanized form of E11E7; also called humanized antibody 13-12

This assay concerns the target T1, IL-23 (HEK293E-derived). Nature of the assay: SPR (Biacore), antibody supernatant captured on Protein A, IL-23 at 5 ug/ml as analyte. The method, then:
As a result of the humanization processes 22 humanized antibodies were produced and tested for their ability to bind human IL-23 (Table 4). Briefly, 2 mL transfections of the 22 humanized antibodies were screened for antibody expression level and binding activity via SPR. Protein A was immobilized onto FC1 and FC2 (or alternatively FC3 and FC4) of a CM5 research grade sensor chip using amine coupling, giving approximately 3000 RU. FC1 was used as a blank throughout the experiments. The experiments were run in HBS-P buffer (SPR). Antibody-containing cell culture supernatants were diluted in 10× HBS-P buffer at a ratio of 9:1. The diluted antibody was injected over FC2 at a flow rate of 20 μl/min. IL-23 (HEK293E-derived) was passed over the surface of FC1 and FC2 at a concentrations of 5 μg/ml as a kinetic injection with 5 min dissociation time across both
FC. Regeneration of the surface was performed using 10 mM Glycine, pH 1.5. The sensorgram data from FC2 were subtracted from FC1 and a buffer only control. […] The Sequence IDs of the variable heavy and light chains for each antibody are given in the Table 4 along with kd (off-rates) of selected tested antibodies.
(SPR reads the build-up and loss of mass on a sensor chip optically.)
The koff is the first-order rate constant of dissociation. For B1, the koff is 0.00462 s⁻¹.

Consider B2, for which the koff worked out at 0.00121 s⁻¹.

In turn, B3 gave a koff of 0.000198 s⁻¹.

Turning to B4, the koff worked out at 0.000566 s⁻¹. Next, B5: 0.00639 s⁻¹. Next, B6: 0.000285 s⁻¹; B7: 0.00313 s⁻¹; B8: 0.013 s⁻¹. B9: the koff came to 0.00102 s⁻¹. Molecule B10 came in with a koff of 0.00391 s⁻¹. B11: the koff was determined as 0.00056 s⁻¹. Next, B12: 0.00198 s⁻¹; B13: 0.00133 s⁻¹. For the molecule B14, the koff turned out to be 0.000224 s⁻¹. Molecule B15 registered a koff of 0.00349 s⁻¹.

The molecule B16 registered a koff of 0.006 s⁻¹. Molecule B17 displayed a koff of 0.000855 s⁻¹.

The values are drawn from patent US20130115166A1 (CEPHALON AUSTRALIA, published 2013).
